Experimental data taken from PMC2911289.

Legend:
[1] = biological target: VEGF-B(10–108) (fusion protein) with thioredoxin, His tag and S tag (human); assay: SDS-PAGE and Western blot
[2] = biological target: VEGF-B(10–108), minimal receptor-binding domain of vascular endothelial growth factor-B (untagged dimer) (human); assay: crystal structure

Row | stoichiometry N [1] | stoichiometry N [2] | Substance
1 | 2 |  | VEGF-B(10–108) (fusion protein) with thioredoxin, His tag and S tag (domain or fragment)
2 |  | 2 | VEGF-B(10–108), minimal receptor-binding domain of vascular endothelial growth factor-B (untagged dimer) (domain or fragment)
